Here are results for eleven molecules from patent US6965850B2, “Methods for modulating nuclear receptor coactivator binding” (The Regents of the University of California, priority 1998, dated 2005).

Ends that are not written are not given here.

For test [1], the target named is T1, hERα-LBD (Homo sapiens, UniProt P03372).
T1 construct: made in house; host or cells: E. coli BL21(DE3)pLysS
T1 sequence (P03372 297-554): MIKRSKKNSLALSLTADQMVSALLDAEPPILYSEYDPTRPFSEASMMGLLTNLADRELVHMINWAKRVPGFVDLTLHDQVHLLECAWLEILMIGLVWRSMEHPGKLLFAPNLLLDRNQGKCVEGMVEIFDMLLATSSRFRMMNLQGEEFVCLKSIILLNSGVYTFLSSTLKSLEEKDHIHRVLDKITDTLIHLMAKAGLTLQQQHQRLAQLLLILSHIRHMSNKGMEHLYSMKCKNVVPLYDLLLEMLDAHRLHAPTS
In words: Electrophoretic mobility shift assay with purified hERα-LBD. The test is classed as binding. The conditions noted are these: 2-fold or 10-fold molar excess of peptide, 6% native PAGE. Here is the method: An electrophoretic mobility shift assay was used to directly assess the ability of the NR-box 2 peptide to bind the purified ERα LBD in the presence of either DES or OHT. Eight microgram samples of purified hERα-LBD bound to either DES or OHT were incubated in the absence of the peptide, i.e., buffer alone, or in the presence of either a 2-fold or 10-fold molar excess of the GRIP1 NR-box 2 peptide. The binding reactions were performed on ice for 45 minutes in 10 μl of buffer containing 20 mM Tris, pH 8.1, 1 mM DTT, and 200 mM NaCl and then subjected to 6% native PAGE. Gels were stained with GELCODE Blue Stain reagent (Pierce).
(In general: Mobility shift assays separate free from complexed probe on a gel.)

For test [2], the target named is T2, hTRβ LBD (Homo sapiens, UniProt P10828).
T2 sequence (P10828 202-461): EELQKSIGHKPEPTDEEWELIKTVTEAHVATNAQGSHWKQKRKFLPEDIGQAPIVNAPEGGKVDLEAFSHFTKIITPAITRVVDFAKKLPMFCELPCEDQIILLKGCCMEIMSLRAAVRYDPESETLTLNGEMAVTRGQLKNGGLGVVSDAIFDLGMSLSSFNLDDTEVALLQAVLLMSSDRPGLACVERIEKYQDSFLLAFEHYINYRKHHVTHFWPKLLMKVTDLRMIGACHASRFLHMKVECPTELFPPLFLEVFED
In words: Peptide competition of GRIP1 (563-767) interaction with hTRβ LBD. It is filed as binding. Also on record: made in house; host or cells: TR LBD: in vitro translation (reticulocyte lysate); GST-GRIP1 fragment: E. coli HB101. The protocol:
(§1) For in vitro binding studies GR, TR and their derivatives were translated in the presence of [^35S]methionine using the TNT Coupled Reticulocyte System (Promega). Separate translations were performed in the presence and absence of 10 μM dexamethasone or 1 μM RU486 for GR and 10 μM triiodothyronine for TR. Expression was quantified by phosphoimager analysis (BAS2000, Fuji). For all binding assays 50 μl of a 20% bead suspension containing either 1.6 or 4.0 μM bound purified GST GRIP1 fragment (either 568-767 or 563-1121) was incubated with 0.2 μl or 1.4 μl in vitro transcribed and translated TR or GR, respectively. Binding was performed in the binding buffer described above supplemented with 20 μg/ml BSA and appropriate hormone. The chosen GST GRIP1 fragment concentrations were sufficient to bind either 70 or 100% of the TR derivatives. The reaction was incubated at 4° C. under rotation for 2 hours. In case of competition experiments, the appropriate concentration of peptides were added to the reaction before addition of receptors. However, no differences in the results were noted by adding the peptides after half of the incubation of the GST GRIP1 fragment with nuclear receptors. […] Beads were washed five times with 200 μl binding buffer+BSA at 4° C. before elution of the bound proteins in 20 μl SDS loading buffer. Eluted beads and input labeled protein were subjected to SDS-PAGE. The fraction of bound nuclear receptors was determined by phosphoimager analysis.

Test [3] concerns GR. In words: GST-GRIP1 fragment pull-down of GR. The test is classed as binding. The protocol: as §1
Test [4] addresses T2, hTRβ LBD. In words: GST-GRIP1 fragment pull-down of TR. Also on record: made in house; host or cells: in vitro translation (TNT Coupled Reticulocyte System, Promega). It is filed as binding. The protocol: For in vitro binding studies GR, TR and their derivatives were translated in the presence of [^35S]methionine using the TNT Coupled Reticulocyte System (Promega). Separate translations were performed in the presence and absence of 10 μM dexamethasone or 1 μM RU486 for GR and 10 μM triiodothyronine for TR. Expression was quantified by phosphoimager analysis (BAS2000, Fuji). For all binding assays 50 μl of a 20% bead suspension containing either 1.6 or 4.0 μM bound purified GST GRIP1 fragment (either 568-767 or 563-1121) was incubated with 0.2 μl or 1.4 μl in vitro transcribed and translated TR or GR, respectively. Binding was performed in the binding buffer described above supplemented with 20 μg/ml BSA and appropriate hormone. The chosen GST GRIP1 fragment concentrations were sufficient to bind either 70 or 100% of the TR derivatives. The reaction was incubated at 4° C. under rotation for 2 hours. In case of competition experiments, the appropriate concentration of peptides were added to the reaction before addition of receptors. However, no differences in the results were noted by adding the peptides after half of the incubation of the GST GRIP1 fragment with nuclear receptors. […] The fraction of bound nuclear receptors was determined by phosphoimager analysis.

Test [5] deals with T3, hERα V376R mutant (Homo sapiens, UniProt P03372, V376R).
T3 construct: expression vector encoding full-length hERα, pSG5-er HEGO (WT or mutants); made in house; host or cells: hERα: in vitro translation implied by the [35S] label; GST-GRIP1: E. coli HB101
T3 sequence (P03372 1-595 V376R): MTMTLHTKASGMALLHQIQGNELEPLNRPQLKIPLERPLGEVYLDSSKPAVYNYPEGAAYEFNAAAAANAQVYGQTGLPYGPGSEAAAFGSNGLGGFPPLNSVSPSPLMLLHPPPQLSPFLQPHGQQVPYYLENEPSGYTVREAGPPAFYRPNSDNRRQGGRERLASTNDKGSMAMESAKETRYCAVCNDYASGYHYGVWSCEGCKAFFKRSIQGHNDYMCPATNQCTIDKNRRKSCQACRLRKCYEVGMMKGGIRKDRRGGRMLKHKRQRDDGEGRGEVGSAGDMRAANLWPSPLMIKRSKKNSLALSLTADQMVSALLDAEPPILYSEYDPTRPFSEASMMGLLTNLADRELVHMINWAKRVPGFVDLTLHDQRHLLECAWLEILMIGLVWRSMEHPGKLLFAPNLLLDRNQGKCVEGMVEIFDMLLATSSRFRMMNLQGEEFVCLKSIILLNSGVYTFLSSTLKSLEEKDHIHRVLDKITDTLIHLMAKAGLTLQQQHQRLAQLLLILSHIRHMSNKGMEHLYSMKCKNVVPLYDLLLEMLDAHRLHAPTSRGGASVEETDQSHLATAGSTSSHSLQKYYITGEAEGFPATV
In words: In vitro binding of [35S]-labeled hERα mutant to GST-GRIP1. Particulars: percentage of WT hERα. The protocol: Beads were washed 3 times with 1 ml of binding buffer and the bound proteins were separated using 10% SDS-PAGE and visualized by autoradiography. Binding was quantitated by phosphorimaging using ImageQuant (Molecular Dynamics).

The target of test [6] is T4, TAFII31 (Homo sapiens, UniProt Q16594).
T4 sequence (Q16594 1-264): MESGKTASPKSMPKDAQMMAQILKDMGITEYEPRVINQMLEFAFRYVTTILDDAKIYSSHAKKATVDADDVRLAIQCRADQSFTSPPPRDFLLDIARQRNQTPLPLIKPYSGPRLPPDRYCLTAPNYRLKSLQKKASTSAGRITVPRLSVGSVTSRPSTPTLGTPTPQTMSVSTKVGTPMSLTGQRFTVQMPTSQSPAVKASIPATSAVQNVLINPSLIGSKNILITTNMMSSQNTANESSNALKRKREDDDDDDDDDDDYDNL
In words: GRIP1 interaction with TAFII31. The test is classed as binding. Particulars: data not shown.

Test [7] deals with MDM2 (Homo sapiens, UniProt Q00987). In words: GRIP1 interaction with MDM2. It is filed as binding. The conditions noted are these: data not shown.
Sequence of MDM2 (Q00987 whole entry, species assumed): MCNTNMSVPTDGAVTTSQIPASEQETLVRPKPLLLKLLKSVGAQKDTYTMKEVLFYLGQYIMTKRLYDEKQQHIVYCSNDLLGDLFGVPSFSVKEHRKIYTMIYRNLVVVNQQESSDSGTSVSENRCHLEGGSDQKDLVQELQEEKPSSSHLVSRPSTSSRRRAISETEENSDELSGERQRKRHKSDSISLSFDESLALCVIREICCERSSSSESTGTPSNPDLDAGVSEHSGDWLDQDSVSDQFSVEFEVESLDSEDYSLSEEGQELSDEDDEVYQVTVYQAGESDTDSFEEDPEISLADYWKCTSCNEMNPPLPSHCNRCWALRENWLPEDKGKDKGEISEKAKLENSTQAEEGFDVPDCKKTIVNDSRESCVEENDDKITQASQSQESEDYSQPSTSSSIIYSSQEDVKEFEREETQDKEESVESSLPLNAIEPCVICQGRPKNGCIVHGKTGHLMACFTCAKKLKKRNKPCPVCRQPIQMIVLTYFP

With “686-KHKILHRLLQDSS-698 (not fully specified; printed as 686-KHKILHRLLQDSS-698; listed as Homo sapiens) [GRIP1 NR-box 2 peptide]”, in test [1], the “migration of DES-hERα-LBD complex in presence of peptide” value is recorded as “retarded” and the “mobility of OHT-hERα-LBD complex on peptide addition” value is “no effect”.

For the molecule “ILHRLL (MUTAGEN (15)..(15) Ile --> Ala; listed as Homo sapiens) [peptide consisting of the NR-box 2]”, the “competition with TR LBD interaction with GRIP1 (563-767)” value (shortened to “competition with TR LBD interaction”) in test [2] is recorded as “does not sufficiently compete”.

In the case of KENALLRYLLDKDDTKD, in test [2], the “competition with TR LBD interaction” value is “increased affinity”.

For “LLRYLL (listed as Homo sapiens) [minimal motif of NR-box 3]”, in test [2], the “competition with TR LBD interaction” value is listed as “does not compete”.

Turning to “NR-box 3: GST-GRIP1 (563-767) with hydrophobic residues of NR-box 2 replaced with alanine; NR-box 3 functional (ENALLRYLLDKDD)”, in test [3], the “binding of GR to GRIP1 fragment” value was “binds most strongly”. For the same molecule, the “loss of TR binding” value in test [4] (hydrophobic residues of the NR-box replaced with alanine) is given as “about 50%”.

Turning to PKKKENALLRYLLDKDDTKD, in test [2], the “competition with TR LBD interaction” value was “increased affinity”.

Consider TSLKEKHKILHRLLQDS, for which, in test [2], the “competition with TR LBD interaction” value is given as “increased affinity”.

With TSLKEKHKLLRYLLQDSS, in test [2], the “competition with TR LBD interaction” value is “binds like a NR-box 2 peptide”.

B1: GRIP1 (563-1121): GRIP1 (563-767) extended to residue 1121, GST fragment (protein)
chain: QNSPVNMNPPPLSKMGSLDSKDCFGLYGEPSEGTTGQAEASCHPEEQKGPNDSSMPQAASGDRAEGHSRLHDSKGQTKLLQLLTTKSDQMEPSPLPSSLSDTNKDSTGSLPGPGSTHGTSLKEKHKILHRLLQDSSSPVDLAKLTAEATGKELSQESSSTAPGSEVTVKQEPASPKKKENALLRYLLDKDDTKDIGLPEITPKLERLDSKTDPASNTKLIAMKTVKEEVSFEPSDQPGSELDNLEEILDDLQNSQLPQLFPDTRPGAPTGSVDKQAIINDLMQLTADSSPVPPAGAQKAALRMSQSTFNNPRPGQLGRLLPNQNLPLDITLQSPTGAGPFPPIRNSSPYSVIPQPGMMGNQGMLGSQGNLGNNSTGMIGSSTSRPSMPSGEWAPQSPAVRVTCAATTGAMNRPVQGGMIRNPTASIPMRANSQPGQRQMLQSQVMNIGPSELEMNMGGPQYNQQQAPPNQTAPWPESILPIDQASFASQNRQPFGSSPDDLLCPHPAAESPSDEGALLDQLYLALRNFDGLEEIDRALGIPELVSQSQAVDAEQFSSQE
modifications: left off: a dimerising Fc or GST
notes: GRIP1 (563-767) extended to residue 1121, GST fragment
Take B1: the “increase of binding to GR on extension of GRIP1 (563-767) to residue 1121” value in test [3] was “about 3 fold”. Besides, the “increase of binding of GR to GRIP1 (563-1121) in the absence of ligand” value in test [3] (GR deletion mutant lacking N-terminal AF-1 versus full length GR, no ligand) is “about 10 fold”.

B2: GRIP1 (563-767): fragment of GRIP1 containing all three NR-boxes, used as GST-fusion (protein)
chain: QNSPVNMNPPPLSKMGSLDSKDCFGLYGEPSEGTTGQAEASCHPEEQKGPNDSSMPQAASGDRAEGHSRLHDSKGQTKLLQLLTTKSDQMEPSPLPSSLSDTNKDSTGSLPGPGSTHGTSLKEKHKILHRLLQDSSSPVDLAKLTAEATGKELSQESSSTAPGSEVTVKQEPASPKKKENALLRYLLDKDDTKDIGLPEITPKLEHHHHHH
modifications: left off: a dimerising Fc or GST
notes: fragment of GRIP1 containing all three NR-boxes, used as GST-fusion
Turning to B2, in test [3], the “affinity of GR for GRIP1 (563-767) relative to a comparable amount of TR” value is reported as “about one-fifth” and the “binding of GR to GRIP1 fragment” value is listed as “found to bind”. Moreover, the “binding of TR to GST-GRIP1 (563-767) fragment” value in test [4] (NR-box hydrophobic residues replaced with alanine where mutant) was “strongly binds TR”.

B3: GRIP1: mouse p160 coactivator protein (protein)
chain: QNSPVNMNPPPLSKMGSLDSKDCFGLYGEPSEGTTGQAEASCHPEEQKGPNDSSMPQAASGDRAEGHSRLHDSKGQTKLLQLLTTKSDQMEPSPLPSSLSDTNKDSTGSLPGPGSTHGTSLKEKHKILHRLLQDSSSPVDLAKLTAEATGKELSQESSSTAPGSEVTVKQEPASPKKKENALLRYLLDKDDTKDIGLPEITPKLE
With B3, in test [5], the “residual GRIP1 binding” value came out at 10%. The “interaction with TAFII31” value in test [6] is recorded as “no interaction was detected”. Moreover, the “interaction with MDM2” value in test [7] is “no interaction was detected”.
